Measurements from US20260116965A1 (COHERENT BIOPHARMA SUZHOU, published 2026).

T1: Transient receptor potential cation channel subfamily V member 6 (TRPV6) protein (human, UniProt Q9H1D0 1-765)
T1 construct: Calcium channel; also called human TRPV6 protein
T1 sequence: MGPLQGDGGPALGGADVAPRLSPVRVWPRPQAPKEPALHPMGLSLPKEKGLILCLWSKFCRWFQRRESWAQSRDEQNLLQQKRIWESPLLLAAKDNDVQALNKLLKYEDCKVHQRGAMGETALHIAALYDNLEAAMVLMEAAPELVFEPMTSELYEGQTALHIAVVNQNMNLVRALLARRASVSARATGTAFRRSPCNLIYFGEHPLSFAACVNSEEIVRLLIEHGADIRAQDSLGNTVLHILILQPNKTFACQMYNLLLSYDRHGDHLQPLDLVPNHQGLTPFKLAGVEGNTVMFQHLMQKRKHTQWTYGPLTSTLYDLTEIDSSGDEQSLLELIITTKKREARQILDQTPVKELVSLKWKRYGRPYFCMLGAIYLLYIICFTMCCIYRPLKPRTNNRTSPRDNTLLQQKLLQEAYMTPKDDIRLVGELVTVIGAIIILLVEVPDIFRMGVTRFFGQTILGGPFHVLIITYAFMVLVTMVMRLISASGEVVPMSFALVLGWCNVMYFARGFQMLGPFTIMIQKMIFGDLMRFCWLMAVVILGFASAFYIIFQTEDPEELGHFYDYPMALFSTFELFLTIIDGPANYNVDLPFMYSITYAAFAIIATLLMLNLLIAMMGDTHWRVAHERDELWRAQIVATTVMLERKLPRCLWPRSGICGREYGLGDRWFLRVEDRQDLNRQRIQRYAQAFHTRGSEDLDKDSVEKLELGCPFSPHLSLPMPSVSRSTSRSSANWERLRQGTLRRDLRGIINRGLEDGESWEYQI


Biological target: T1, Transient receptor potential cation …
Assay: IHC on tissue slices

Row | binding result | Binder
1 | binds | CB-Anti-0001 antibody (antibody, IgG1, V domains shown, also called antibody of hybridoma cell line 12CT 9.5.1; 12CT9.5.1) VH: QVQVQQPGAELVKPGTSVKLSCKASGYTFTSYWMHWVKQRPGQGLEWIGEIDPSDGYTNYNQKFRGKATLSVDKSSTTAYMQLSSLTSEDSAVYYCGWAGDFWGQGTTLTVSS VL: not shown
2 | binds | CB-Anti-0002 antibody (antibody, IgG1, V domains shown, also called antibody of hybridoma cell line 16CT 4.1.1.2; 16CT4.1.1.2) VH: EVKLEESGGGLVQPGGSMKLSCVASGFTFSYYWMNWVRQSPEKGLEWVAEIRLKSHNYATHYAESVKGRFTISRDDSKSSVYLQMNNLRSEDTGIYYCARLAYDGERYYYALDYWGQGTSVTVSS VL: DIVMSQSPSSLAVSVGEKFTMSCKSSQSLLYSNNQKNYLAWYQQKPGQSPKLLIYWASTRESGVPDRFTGSGYGTDFTLTISSVKAEDLAVYYCQQYYSYPFTFGSGTKLEIK
